Key:
[1] = biological target: human VEGFA (Cat. No. Z03073, Genscript) (human) (UniProt P15692)
[2] = biological target: human VEGFA (Cat. No. Z03073, Genscript) (human) (UniProt P15692); test: ELISA, plate coated with VEGFA, detection with HRP anti-human IgG
[3] = biological target: human VEGFA (Cat. No. Z03073, Genscript) (human) (UniProt P15692); test: SPR (Biacore), protein captured on protein A chip, VEGFA as analyte, 25 C
[4] = biological target: human VEGFA (Cat. No. Z03073, Genscript) (human) (UniProt P15692); test: competition ELISA, Eylea coated as competitor, 5 nM VEGFA dimer pre-incubated with Conbercept
[5] = biological target: human VEGFA (Cat. No. Z03073, Genscript) (human) (UniProt P15692); test: competition ELISA: plate coated with Eylea, Conbercept in dilution series pre-incubated with 5 nM VEGFA, VEGFA bound to Eylea detected. The sheet prints ng/mL, the text prints nM

Sequence of Eylea (Fc fusion) (chain): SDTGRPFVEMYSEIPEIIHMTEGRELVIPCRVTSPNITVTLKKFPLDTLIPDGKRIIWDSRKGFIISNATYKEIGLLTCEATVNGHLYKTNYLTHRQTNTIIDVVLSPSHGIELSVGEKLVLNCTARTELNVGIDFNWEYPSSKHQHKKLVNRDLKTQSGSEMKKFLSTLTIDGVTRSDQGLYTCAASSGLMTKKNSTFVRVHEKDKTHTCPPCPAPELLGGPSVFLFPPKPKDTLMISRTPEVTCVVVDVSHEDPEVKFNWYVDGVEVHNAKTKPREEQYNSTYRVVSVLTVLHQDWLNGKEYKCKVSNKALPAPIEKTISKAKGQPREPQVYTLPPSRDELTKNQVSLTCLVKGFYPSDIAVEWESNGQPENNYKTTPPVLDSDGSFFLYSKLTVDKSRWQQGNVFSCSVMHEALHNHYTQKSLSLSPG
Sequence of human VEGFA (Cat. No. Z03073, Genscript) (human) (P15692 other isoform, or with tags, fused parts or gaps limits assumed): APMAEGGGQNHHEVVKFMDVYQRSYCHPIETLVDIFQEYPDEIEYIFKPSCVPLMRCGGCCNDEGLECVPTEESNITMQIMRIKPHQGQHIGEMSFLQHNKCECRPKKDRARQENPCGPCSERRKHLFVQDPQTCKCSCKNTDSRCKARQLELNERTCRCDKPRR
Sequence of Conbercept eye injection (Fc fusion) (chain): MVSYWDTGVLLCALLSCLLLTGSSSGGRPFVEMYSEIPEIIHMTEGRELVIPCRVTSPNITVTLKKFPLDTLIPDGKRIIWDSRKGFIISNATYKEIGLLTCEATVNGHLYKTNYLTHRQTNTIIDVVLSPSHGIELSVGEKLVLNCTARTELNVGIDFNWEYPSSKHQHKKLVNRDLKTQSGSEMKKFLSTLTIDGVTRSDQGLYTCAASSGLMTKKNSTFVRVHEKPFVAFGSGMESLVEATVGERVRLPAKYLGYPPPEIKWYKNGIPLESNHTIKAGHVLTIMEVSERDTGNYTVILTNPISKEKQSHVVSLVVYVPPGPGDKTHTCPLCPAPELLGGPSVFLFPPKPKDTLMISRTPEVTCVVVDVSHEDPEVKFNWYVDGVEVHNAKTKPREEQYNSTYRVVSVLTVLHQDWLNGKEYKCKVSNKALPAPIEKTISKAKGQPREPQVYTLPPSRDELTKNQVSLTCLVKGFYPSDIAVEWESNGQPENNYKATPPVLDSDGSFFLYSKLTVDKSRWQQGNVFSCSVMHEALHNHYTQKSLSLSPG

| Substance | IC50 (inhibition of VEGFA-induced HUVEC proliferation, CellTiter-Glo) [1] | EC50 (read off the curve) [2] | Kd [3] | IC50 [4] | IC50 [5] |
| --- | --- | --- | --- | --- | --- |
| Eylea (Fc fusion) | 0.0045 µg/mL | 0.07 µg/mL | 0.0361 nM | – | – |
| Conbercept eye injection (Fc fusion) | – | – | – | 16.9 nM | 0.0169 µg/mL |

Source: patent US20240343791A1
